Measured values as given in PMC9043842 (RSC Advances, 2021).
Read-outs that look alike come from different tables or passages of the source.

Key:
Assay in all cases: SEC
SEC [1] = target: the molecule itself
SEC [2] = target: the molecule itself; remark: listed apart in the source
SEC [3] = target: the molecule itself; remark: listed apart in the source

| Protein | dimer-to-monomer ratio after heating (SEC [1]) | Ka (SEC [2]) | dH (SEC [2]) | Ka (SEC [3]) | dH (SEC [3]) |
| --- | --- | --- | --- | --- | --- |
| G80A/H81A (K3A2H) horse myoglobin (natural protein) GLSDGEWQQVLNVWGKVEADIAGHGQEVLIRLFTGHPETLEKFDKFKHLKTEAEMKASEDLKKHGTVVLTALGGILKKKAAHEAELKPLAQSHATKHKIPIKYLEFISDAIIHVLHSKHPGDFGADAQGAMTKALELFRNDIAAKYKELGFQG | 92% | 920000 M⁻¹ | -30.8 ± 1.1 kcal/mol | – | – |
| G80A/H81A/L137D (K3A2H-L137D) horse myoglobin (natural protein) GLSDGEWQQVLNVWGKVEADIAGHGQEVLIRLFTGHPETLEKFDKFKHLKTEAEMKASEDLKKHGTVVLTALGGILKKKAAHEAELKPLAQSHATKHKIPIKYLEFISDAIIHVLHSKHPGDFGADAQGAMTKALEDFRNDIAAKYKELGFQG | 98% | – | – | 2.3e+07 M⁻¹ | -100 ± 4 kcal/mol |
| G80A/H81A/L137E (K3A2H-L137E) horse myoglobin (natural protein) GLSDGEWQQVLNVWGKVEADIAGHGQEVLIRLFTGHPETLEKFDKFKHLKTEAEMKASEDLKKHGTVVLTALGGILKKKAAHEAELKPLAQSHATKHKIPIKYLEFISDAIIHVLHSKHPGDFGADAQGAMTKALEEFRNDIAAKYKELGFQG | 97% | – | – | 9.4e+06 M⁻¹ | -63.2 ± 5.1 kcal/mol |
